# According to patent US20160009789A1:
# Biological target: Du156.12
# Assay: ELISA
row,EC50 [µg/mL],Substance
1,0.066,VRC01 Heavy chain: P62K
2,0.164,VRC01 Heavy chain: V57T
3,0.071,VRC01 Heavy chain: Y74S
4,0.196,VRC01 Light chain: Y30S

# Further lines, the substance ahead of its results:
row,Substance,EC50 [µg/mL]
1,VRC01 Heavy chain: K52N,0.056
2,VRC01 Heavy chain: A56G,0.101
3,VRC01 Heavy chain: I30T,0.063
4,VRC01 Heavy chain: R53N,0.063
5,VRC01 Heavy chain: V73T,0.097
6,VRC01 Heavy chain: R61Q,0.086
7,VRC01 Heavy chain: T33Y,0.048

# Biological target: Du156.12
# Assay: ELISA; deglycosylated
row,EC50 [µg/mL],Substance
1,0.05,Deglycosylated VRC01

# Biological target: HXBc2
# Assay: ELISA; deglycosylated
row,EC50 [µg/mL],Substance
1,0.045,Deglycosylated VRC01
